Biological target: GAPDH (human (endogenous in U2OS)) (UniProt P04406)
Experiment: cross-linking; titration of formaldehyde on intact adherent U2OS cells, quenched with Tris, extracted in SDS denaturing buffer, immunoblot of total cell lysates; 6% formaldehyde optimal

GAPDH, P04406 1-335 (enzyme; other documents disagree on this pair), sequence (P04406 whole entry): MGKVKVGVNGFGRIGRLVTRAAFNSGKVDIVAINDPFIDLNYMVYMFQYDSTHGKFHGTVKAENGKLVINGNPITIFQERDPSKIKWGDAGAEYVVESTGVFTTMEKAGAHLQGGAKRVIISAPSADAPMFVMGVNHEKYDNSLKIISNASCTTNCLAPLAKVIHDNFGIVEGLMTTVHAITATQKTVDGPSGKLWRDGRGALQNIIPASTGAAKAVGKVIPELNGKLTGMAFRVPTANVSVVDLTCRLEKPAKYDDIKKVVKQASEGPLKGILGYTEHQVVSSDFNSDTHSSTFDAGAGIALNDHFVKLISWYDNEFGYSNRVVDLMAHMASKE

stoichiometry N: 4
Substance: GAPDH, P04406 1-335 (enzyme; other documents disagree on this pair)
